The values that follow are results of earlier work, collected in paper PMC2912330.

As usually defined, the Kd is the concentration at which binding is half-saturated.

Data set [1] deals with VEGFR2 (Homo sapiens) (UniProt P35968).
The target is the same in data set [2]. This is another data set of the same source.

Read-outs that look alike come from different tables or passages of the source.

UniProt P35968, sequence (P35968 20-1356): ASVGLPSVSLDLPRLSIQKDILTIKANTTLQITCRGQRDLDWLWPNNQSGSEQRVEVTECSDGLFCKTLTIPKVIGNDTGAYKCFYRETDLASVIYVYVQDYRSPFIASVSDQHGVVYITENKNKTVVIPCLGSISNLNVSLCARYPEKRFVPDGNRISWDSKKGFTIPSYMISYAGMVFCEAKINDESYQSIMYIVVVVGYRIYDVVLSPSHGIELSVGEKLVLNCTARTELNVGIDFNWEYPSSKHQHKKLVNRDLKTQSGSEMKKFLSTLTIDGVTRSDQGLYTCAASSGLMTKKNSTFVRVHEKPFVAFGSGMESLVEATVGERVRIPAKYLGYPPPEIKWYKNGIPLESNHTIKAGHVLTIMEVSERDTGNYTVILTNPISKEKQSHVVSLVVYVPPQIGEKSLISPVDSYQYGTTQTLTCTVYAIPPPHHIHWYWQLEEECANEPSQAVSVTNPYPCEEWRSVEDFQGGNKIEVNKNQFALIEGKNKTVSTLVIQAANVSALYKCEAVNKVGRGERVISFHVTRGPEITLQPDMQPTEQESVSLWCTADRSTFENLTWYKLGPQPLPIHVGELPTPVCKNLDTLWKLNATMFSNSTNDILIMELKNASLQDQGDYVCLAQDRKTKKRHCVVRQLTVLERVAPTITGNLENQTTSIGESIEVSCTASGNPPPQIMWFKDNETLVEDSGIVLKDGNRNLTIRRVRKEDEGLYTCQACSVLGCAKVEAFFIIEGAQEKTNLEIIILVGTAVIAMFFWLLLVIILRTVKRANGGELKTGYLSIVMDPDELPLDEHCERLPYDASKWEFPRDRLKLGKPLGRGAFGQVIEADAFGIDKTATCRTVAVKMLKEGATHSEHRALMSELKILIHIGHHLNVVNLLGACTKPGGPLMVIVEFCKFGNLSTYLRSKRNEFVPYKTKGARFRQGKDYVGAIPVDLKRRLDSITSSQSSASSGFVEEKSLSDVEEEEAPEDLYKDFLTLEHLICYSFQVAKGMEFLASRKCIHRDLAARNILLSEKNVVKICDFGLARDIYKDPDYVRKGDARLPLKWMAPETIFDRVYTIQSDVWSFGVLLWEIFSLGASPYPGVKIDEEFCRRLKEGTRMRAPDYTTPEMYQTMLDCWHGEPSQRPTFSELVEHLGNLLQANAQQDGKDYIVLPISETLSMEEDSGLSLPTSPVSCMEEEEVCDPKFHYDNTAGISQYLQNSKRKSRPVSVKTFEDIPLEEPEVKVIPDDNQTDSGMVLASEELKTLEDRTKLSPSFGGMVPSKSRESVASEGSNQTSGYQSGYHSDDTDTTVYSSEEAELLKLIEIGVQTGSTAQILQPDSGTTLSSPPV

For VEGF114 VEGF114 (from UniProt P15692), the Kd in data set [1] was 100 pM. Take VEGF165 VEGF165 (from UniProt P15692): the Kd in data set [2] was 100 pM.
